One molecule from patent US20250361284A1, “TRANSPOSASE FUSION PROTEINS FOR USE IN CELL AND GENE THERAPY” (JULIUS-MAXIMILIANS-UNIVERSITÄT WÜRZBURG, priority 2022, published 2025) can be followed below.

Where only a bound is given, the exact number is not on record here.

What all share (type): cell-based, human
Assay [1] concerns HeLa cells. In words: Transposition assay (G-418-resistant colonies) in HeLa cells. Particulars: presence of TMP. The text has this: (2D) Transposition assay for evaluating the activity of dd-SB100X fusion-transposase. HeLa cells were transfected with neomycin-marked transposon plasmid and construct expressing wild type SB transposase (SB100X) or fusion-transposase (dd-SB100X), and selected for transposition events by antibiotic selection with G-418. Data representing the number of G-418-resistant colonies are shown on the right.
An transposon donor vector with neomycin resistance gene was generated de novo in house using Gibson assembly. In order to test the activity (in terms of integration capability) of the fusion-transposase (dd-SB100X) transposition assay was performed in HeLa cells as per the published protocol (Ivics et al., 1997). Briefly, ˜150,000 HeLa cells were seeded into each well of a 6-well plate a day before transfection. […] After 10 days of selection, cells were washed with PBS, fixed with tissue culture fixing solution, stained with methylene blue and counted.
We next examined the activity of the fusion-transposase (dd-SB100X) by standard transposition assay wherein we transfected HeLa cells with a SB transposon donor plasmid encoding a neomycin resistance gene, together with plasmid encoding SB100X as a positive control, or the fusion-transposase protein. […] After 10 days, colonies were fixed, stained and counted to determine the integration events achieved under each of the experimental conditions.

Assay [2] deals with CD19 CAR T cells. Put plainly: Transposon (CAR) copy number analysis by ddPCR in CAR T cells. Particulars: plasmid-encoded transposase, EGFRt-enriched CAR T cells. The method, then:
(4C) CAR Copy number analysis of CD8+ CD19 CAR T cells engineered with dd-SB100X fusion transposase. The number of integrations per genome was analyzed by ddPCR. Data shown are mean values of three biological replicates measured in technical triplicates and shown ±S.E.M. The data was analyzed using unpaired, two-tailed Student's T-test and differences were statistically significant (*, p=0.0274).
(6D) Transposon copy number analysis in EGFRt+ CD8+ T cells that were nucleofected with CD19-CAR_EGFRt SB transposon minicircle DNA and mRNA encoding either the wild type SB transposase (SB100X) or the fusion-transposase (dd-SB100X) assessed by digital droplet PCR.
Genomic DNA (gDNA) of CAR-positive T cells was isolated using dPureLink gDNA Mini Kit (Invitrogen, California, USA). Droplet digital PCR (ddPCR) was set up and analyzed in technical triplicates. Each ddPCR reaction contained ready-to-use ddPCR Supermix for Probes No dUTP (Bio-Rad, California, USA), 20 ng of the respective fragmented gDNA, 0.2 μL of CviQl (10 000 U/mL) (NEB, Frankfurt am Main, Germany), 0.1 μL of Dpnl (20,000 U/mL) (NEB, Frankfurt am Main, Germany), 200 nM of each respective ddPCR FAM/HEX probe, and 600 nM of each respective forward and reverse primer in a final volume of 25 μL. CviQl was used to fragment the gDNA to ensure single-copies per droplet. DPNI was used to specifically digest non-integrated vectors. […]

For assay [3], the system named is K562/CD19 target cells. Put plainly: Antigen specific proliferation (CFSE dye dilution) of CD19 CAR T cells. Conditions: 72 hours, stimulation with K562/CD19 target cells. The procedure: (4E) Antigen specific proliferation by CD4+ CD19 CAR T cells engineered with dd-SB100X fusion transposase. Proliferation of CD4+ CAR T cells was examined by CFSE dye dilution after 72 hours of co-culture with K562/CD19 or K562 target cells. For analysis, triplicate wells were pooled and the proliferation of viable 7-AAD-negative T cells was analyzed. The division index (average number of cell divisions) was calculated using FlowJo software. Data shown are mean values ±s.d. of one representative experiment.
(§1) Anonymous healthy donor blood samples were received upon written consent to participate in research protocols approved by the Institutional Review Board of the Universitätsklinikum Würzburg (UKW). Blood samples were processed for T cells isolation as published earlier (Querques et al., 2019). Briefly, Peripheral blood mononuclear cells (PBMCs) were isolated by density centrifugation with Biocoll separating solution (Biochrom). Both CD4+ and CD8+ T cells were sorted by negative isolation approach using microbeads and magnetic associated cell sorting (MACS, Miltenyi) methods as described by the manufacturer. The isolated CD4+ and CD8+ T cells were cultured in T cell medium (RPMI-1640 with 10% (vol/vol) human serum, 2 mM L-glutamine, 100 U ml-1 penicillin-streptomycin) containing IL-2 (50 units per mL) and activated by anti-CD3/CD28 bead stimulation (Thermo Fisher). […]

The subject of assay [4] is CD8+ T cells. Put plainly: Gene transfer in CD8+ T cells with TMP priming before nucleofection. Conditions: day 7. The procedure: CD8+ T cells were isolated from healthy donor PBMC and activated with CD3/CD28 bead stimulation. […] Cells were nucleofected with CD19-CAR_EGFRt SB transposon minicircle DNA and plasmid encoding either the wild type SB transposase (SB100X) or the fusion-transposase (dd-SB100X). […] At 7 days post-nucleofection, flow cytometric analysis was performed to determine the percentage of T cells that expresses the EGFRt reporter. Top panel: Dot plots show EGFRt expression on day 7 post-nucleofection.
as §1, with “Fisher). Two days post-activation, approximately 2 million T cells were nucleofected with vectors (1 μg of CD19 CAR (EGFRt)-encoding transposon as plasmid or minicircle DNA; 1 μg of mRNA encoding SB transposase) or 10 μg of hsSB protein (Querques et al., 2019) using a 4D Nucleofector (Lonza) as per the manufacturer's instructions. CD19 CAR-modified (i.e., EGFRt+) T cells were enriched using biotin-conjugated anti-EGFR monoclonal antibody and anti-biotin beads (Miltenyi) as per the manufacturer's instructions.” for “Fisher).”

The subject of assay [5] is CD4+ T cells. Put plainly: CAR gene transfer (EGFRt flow cytometry) in CD4+ T cells, dd-SB100X vs wild type SB100X plasmid. Particulars: day 7. The procedure: (4A) CAR gene transfer in CD4+ T cells using dd-SB100X fusion-transposase vs. wild type SB100X transposase. CD3/CD28 activated CD4+ T cells were nucleofected with CD19-CAR_EGFRt SB transposon minicircle DNA and plasmid encoding either the fusion-transposase (pdd-SB100X/dd-SB100X) or the wild type SB transposase (pSB100X/SB100X). At 7 days post-nucleofection, flow cytometric analysis was performed to determine the percentage of T cells that express the EGFRt reporter. Top panel: Dot plots show EGFRt expression on day 7 post-nucleofection.
as §1, with “Fisher). Two days post-activation, approximately 2 million T cells were nucleofected with vectors (1 μg of CD19 CAR (EGFRt)-encoding transposon as plasmid or minicircle DNA; 1 μg of mRNA encoding SB transposase) or 10 μg of hsSB protein (Querques et al., 2019) using a 4D Nucleofector (Lonza) as per the manufacturer's instructions.” for “Fisher).”
We next investigated if the dd-SB100X fusion-transposase retained transposition activity in primary human T cells. […] We observed differences in CD19-CAR_EGFRt expression, as evidenced by mean fluorescence intensity (MFI) of EGFRt by flow cytometry.
(In general: In flow cytometry, cells or beads pass a laser one at a time.)

B1: dd-SB100X: ecDHFR destabilizing domain fused via linker to N-terminus of SB100X transposase; SEQ ID NO: 2 (protein)
chain: MISLIAALAVDYVIGMENAMPWNLPADLAWFKRNTLNKPVIMGRHTWESIGRPLPGRKNIILSSQPSTDDRVTWVKSVDEAIAACGDVPEIMVIGGGRVIEQFLPKAQKLYLTHIDAEVEGDTHFPDYEPDDWESVFSEFHDADAQNSHSYCFEILERKLGGGAPAVGGGPKMGKSKEISQDLRKRIVDLHKSGSSLGAISKRLAVPRSSVQTIVRKYKHHGTTQPSYRSGRRRVLSPRDERTLVRKVQINPRTTAKDLVKMLEETGTKVSISTVKRVLYRHNLKGHSARKKPLLQNRHKKARLRFATAHGDKDRTFWRNVLWSDETKIELFGHNDHRYVWRKKGEACKPKNTIPTVKHGGGSIMLWGCFAAGGTGALHKIDGIMDAVQYVDILKQHLKTSVRKLKLGRKWVFQHDNDPKHTSKVVAKWLKDNKVKVLEWPSQSPDLNPIENLWAELKKRVRARRPTNLTQLHQLCQEEWAKIHPNYCGKLVEGYPKRLTQVKQFKGNATKY
modifications: misc_feature 1..1539 ecDHFR-SB100X
As to B1, the transposition activity result in assay [1] was “active and mediated transposition activity”. Besides, the “transposition activity compared to wild type SB100X” value in assay [1] was “reduced transposition activity”. Besides, the “transposon copies per genome (average)” value in assay [2] is 2.99 copies per genome. The “proliferation (cell divisions)” value in assay [3] was greater than 3 cell divisions. Further, the “MFI of EGFRt expression compared to wild type SB100X” value in assay [4] is recorded as “lower MFI”. Further, the “gene transfer (EGFRt+ T cells)” value is listed as roughly 26.1% in assay [4] (not primed with TMP) and roughly 29.7% in assay [4] (primed with TMP 1000 nM for 24 hours before nucleofection). Moreover, the “gene transfer rate (EGFRt+ T cells)” value in assay [5] (cultured in absence of TMP after nucleofection) is roughly 6.6%; in assay [5] (dd-SB100X cultured in presence of TMP after nucleofection, SB100X wild type control) it was roughly 18%. For the same molecule, in assay [5] (presence of TMP), the “MFI of EGFRt compared to wild type SB100X” value is given as “lower MFI”.
